From US20240408238 come the findings set out here.

The test system of this data set is AcrIIC5Smu.

With “Nme1Cas9-Nme2Cas9PID chimera (Nme1Cas9 with its PID replaced by that of Nme2Cas9)”, the “in vitro DNA cleavage by the PID-swapped chimera in the presence of Acr (10-fold ratio; ~30x higher Cas9 concentration)” value was “No inhibition was observed by AcrIIC5Smu on this protein chimera”.
